{"source": "the supplement of paper PMC9170038"}
{"test_system": "MS2 coat protein", "test": "apparent KD of MS2 coat protein; higher = weaker reporter binding", "settings": "Eterna round: R107; input ligand: arginine 13.2 mM", "procedure": "(§1)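 RNA-MaP round R107: designed RNA switches with theophylline, tryptophan, arginine or FMN aptamers are transcribed on-chip within common flanks. They are titrated with SNAP-549-labelled MS2 coat protein in RNA-MaP buffer (100 mM Tris pH 7.5, 80 mM KCl, 4 mM MgCl2), without ligand or with the indicated ligand. Median apparent KD per design.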", "units": {"apparent KD of MS2 coat protein": "µM"}}
{"sequence": "GUGCGGUCUGAUGAUACCAGAUGUGGUGGGAACAUGAGGAUCACCCAUGUUGUGAGGCAGGUCCCUUGGCAGCAUGAGUGAGCUU [TheoB-ms2@32-2]", "apparent KD of MS2 coat protein": 0.0124}
{"sequence": "UGUAUGUGAUCUGAUACCAGCUUAAUAGCUUGAGGAUCACCCAAGUGGAGCGGAAACGCUAGCCCUUGGCAGCAGAUCGCAUACU [Denovo 10 #StaticStem #AlternativeMS2]", "apparent KD of MS2 coat protein": 0.104}
{"sequence": "UGUUUUAAAAGUGAUACCAGACAAACAUGAGGAUCACCCAUGUAACAUGAGAGAUAAUAAGUCCCUUGGCAGCACAUAAUUAGUA [JR_Nu_SSTheophyB_Sub028]", "apparent KD of MS2 coat protein": 0.027}
{"sequence": "GGUUGGUCCUCACAUGAGGAUCACCCAUGUCGAGGACCGGUACGGCCGCCACUCGAUUGUACCAGGGCUUAAGAGCCUAUGAGCA [Erenedquce]", "apparent KD of MS2 coat protein": 0.0126}
{"sequence": "AAACGCUAUGCGGCCGCCACUAAGGUUGGCGUCUAUGUCGUUUAAGACAUGAGGAUCACCCAUGUUAGGACCGGGCAUGUCCGCG [theeternabot_exclusion_MS2_Trp_B_25]", "apparent KD of MS2 coat protein": 0.0191}
{"sequence": "GUAGCGACGACGGCCGCCACUCACACGAGAGGGUAGACCAACCUUCACAUGAGGAUCACCCAUGUGAGGACCGGGUUGUCGGUAC [Exclusion - Tryptophan B]", "apparent KD of MS2 coat protein": 0.02}
{"test_system": "MS2 coat protein", "test": "apparent KD of MS2 coat protein; higher = weaker reporter binding", "settings": "Eterna round: R107; input ligand: none", "procedure": "as §1", "units": {"apparent KD of MS2 coat protein": "µM"}}
{"sequence": "AGAUGUAGCGGAAGGAGCGACAUGAGGAUCACCCAUGUCUCCCGUUAUGGGAGUUCCUUAGGUCAGGUAGGUCGCCGUUACGUCA [Omei Arg B SS B v1]", "apparent KD of MS2 coat protein": 0.146}
{"sequence": "UUCAGCUAGUCGGCCGCCACUGCUUGAGGAUCACCCAAGUAGGUCCACACUGCUUCGGCAGUGAGUAGGACCGGGACUAGCUGAG", "apparent KD of MS2 coat protein": 0.0101}
{"sequence": "AAUAGUCCUCGACAUGGGUAUCACCCAUGUCGAGGACCGGUACGGCCGCCACUCGACAUGAGGAUCACCCAUGUUGAGUGAUAAA [prototype 1.1]", "apparent KD of MS2 coat protein": 0.00957}
{"sequence": "GAUAUAUAUCGAAGGAGCGGCCCUUGAUCCUCAUGAGACAUGAGGAUCACCCAUGUCUCGGGCCAGGUAGGUCGCGAUAUAUAUC [Astros-omei-mod2]", "apparent KD of MS2 coat protein": 0.0212}
{"sequence": "CAAGAACAGCCGAAUCUCGGCAGCUGAGAAGGAGCGCGAGAAGUCGCAGGUAGGUCGCUCAGGAAUACAUGAGGAUCACCCAUGU [Usaronen]", "apparent KD of MS2 coat protein": 0.0284}
{"sequence": "UAAUAAAUAAAUCCAAGGUGAAGGUCAGAUACCAGCCAGAUAACUGGCCCUUGGCAGCUGAAUAAUCAUGAGGAUCACCCAUGAA [TheoAS 25 #OpenEnded #MS2Late #AlternativeMS2]", "apparent KD of MS2 coat protein": 0.0228}
{"sequence": "UACCGAGAGGGAAGGAGCGCGAUAACAUAACAUGAGGAUCACCCAUGUAAGAAAUUAAUCAUGCAGGUAGGUCGCCCAAGCGGAU [Same State Arginine B GF 2]", "apparent KD of MS2 coat protein": 0.0154}
{"sequence": "AGUAGUUGACAAAAGUCAGCUACAACUGAAGGAGCGGGUGGGUGCCCAGGUAGGUCGCGGAAACAUGAGGAUCACCCAUGUAUAA [ArgAS 1 #BothOrNeither #OpenEnded]", "apparent KD of MS2 coat protein": 0.0131}
{"sequence": "UGUAUGUGAUUUGAUACCAGACCAGCUGGUGGUACCUGAGGAUCACCCAGGUAGGUUUGGGUCCCUUGGCAGCAAAUCGCAUACU [SS Theo B #24 Ms6]", "apparent KD of MS2 coat protein": 0.0206}
{"sequence": "GGGACAUCGGGAAGGAGCGCAUCCAAACCACACAUGAGGAUCACCCAUGUAUAAAUAUGCAUGCAGGUAGGUCGCCCGGUGCCUC [Axeenza]", "apparent KD of MS2 coat protein": 0.114}
{"sequence": "UGACAUUGCUCAGAUACCAGACUUGAGGAUCACCCAAGUGCCAACAAGUAUAUAAUAAAAGUCCCUUGGCAGCUGAGCAAUGUCU [TheoBX 18#MS2Left #AlternativeMS2 #Theo2]", "apparent KD of MS2 coat protein": 0.028}
{"sequence": "GGAGGUGAGAGAAGGAGCGGAAGUUUCGUUACAACAUGAGGAUCACCCAUGUAACGUUUAGUCCAGGUAGGUCGCUCUCGGGCGG [jbbgmullin]", "apparent KD of MS2 coat protein": 0.0163}
{"sequence": "AGAUUUAUUCUGACCGGGCUCAUUCCUGAAGGAGCGCAGAACAAUGCAGGUAGGUCGCAGGACAUGAGGAUCACCCAUGUCAGGC [Inmainzais]", "apparent KD of MS2 coat protein": 0.0221}
{"sequence": "UAACAUGAGGAUCACCCAUGUUUAGAUGAACGAGGACCGGUACGGCCGCCACUCGAUAAGUGGAAGAAACGAGGGAUUGUAUGAU [Same State Trp A GF2]", "apparent KD of MS2 coat protein": 0.0127}
{"sequence": "GGACUAACCAGAAGGAGCGGCACAGCAGAAACUGCAAAUCCUCCGCACGAGGAUCACCCGUGUCAGGUAGGUCGCUGGUUAGUCG [ArgBX 28]", "apparent KD of MS2 coat protein": 0.0371}
{"sequence": "GCUAGUGGCAGAAGGAGCGAGGCUACAUACGGGUACAUGAGGAUCACCCAUGUGGUGUGUACUCAGGUAGGUCGCUGCCACUAGC [SSAB NP+V+V2 #13 Same Structure]", "apparent KD of MS2 coat protein": 0.921}
{"sequence": "AAGGUGAUCCCAGAUACCAGCUUAACAUGAGGAUCACCCAUGUAACGGACGAAAGUCCGGAGCCCUUGGCAGCUGGGUUGCCAAG [SSTheo B #14]", "apparent KD of MS2 coat protein": 0.266}
{"sequence": "UCACAUGAGGAUCACCCAUGUGUCAGAGAAGGAGCGGCCGCAAGGCCAGGUAGGUCGCUCAGGUAGCGUGAGGAUCACCCGUGUG [#1 Exclusion - Arginine A Attempt #10 (Inspired by cyborg)]", "apparent KD of MS2 coat protein": 0.118}
{"sequence": "GGGUGCGGGUGAAGGAGCGUGAAGACAUGAGGAUCACCCAUGUAGAGGCCCGAACAGGGUUCGCAGGUAGGUCGCACCCGUGCCC [#1 Same State - Arginine B Attempt #3 (HarryS)]", "apparent KD of MS2 coat protein": 0.0173}
{"sequence": "GGGAGGGAGGCGGCCGCCACUGAUUUUCAUAUAUAUAUAACAUGAGGAUCACCCAUGUGGAUAUGCAGGACCGGGCCUUUUUUUU [aaaJ]", "apparent KD of MS2 coat protein": 0.0222}
{"sequence": "GUGCGGUCUGAUGAUACCAGAUGUGGUGGGAACAUGAGGAUCACCCAUGUUGUGAGGCAGGUCCCUUGGCAGCAUGAGUGAGCUU [TheoB-ms2@32-2]", "apparent KD of MS2 coat protein": 0.119}
{"sequence": "UGUAUGUGAUCUGAUACCAGCUUAAUAGCUUGAGGAUCACCCAAGUGGAGCGGAAACGCUAGCCCUUGGCAGCAGAUCGCAUACU [Denovo 10 #StaticStem #AlternativeMS2]", "apparent KD of MS2 coat protein": 0.198}
{"test_system": "MS2 coat protein", "test": "apparent KD of MS2 coat protein; higher = weaker reporter binding", "settings": "Eterna round: R107; input ligand: theophylline 20 uM", "procedure": "as §1", "units": {"apparent KD of MS2 coat protein": "µM"}}
{"sequence": "AUGUUUGUGUGAGAUACCAGUGAGGCCACAUGAGGAUCACCCAUGUCCCUCACUCCGGCCCACCCUUGGCAGCUCUUAUAGAAAA [Exclusion Theophylline B GF 26]", "apparent KD of MS2 coat protein": 0.0154}
{"sequence": "AGAUGUAGCGGAAGGAGCGACAUGAGGAUCACCCAUGUCUCCCGUUAUGGGAGUUCCUUAGGUCAGGUAGGUCGCCGUUACGUCA [Omei Arg B SS B v1]", "apparent KD of MS2 coat protein": 0.143}
{"sequence": "UUCAGCUAGUCGGCCGCCACUGCUUGAGGAUCACCCAAGUAGGUCCACACUGCUUCGGCAGUGAGUAGGACCGGGACUAGCUGAG", "apparent KD of MS2 coat protein": 0.0144}
{"sequence": "AAUAGUCCUCGACAUGGGUAUCACCCAUGUCGAGGACCGGUACGGCCGCCACUCGACAUGAGGAUCACCCAUGUUGAGUGAUAAA [prototype 1.1]", "apparent KD of MS2 coat protein": 0.0137}
{"sequence": "CAGGUGCAGUCAGAUACCAGAUCUGCACAUGAGGAUCACCCAUGUGUAAUGAGUUCAAAGAUCCCUUGGCAGCUGUGUGAUCCGA [Onbidibe]", "apparent KD of MS2 coat protein": 0.21}
{"sequence": "GAUAUAUAUCGAAGGAGCGGCCCUUGAUCCUCAUGAGACAUGAGGAUCACCCAUGUCUCGGGCCAGGUAGGUCGCGAUAUAUAUC [Astros-omei-mod2]", "apparent KD of MS2 coat protein": 0.0288}
{"sequence": "ACACACAUGAGGAUCACCCAUGUCUAUAUACGAGGACCGGUACGGCCGCCACUCGUGAGAUCGCGAGAGACAGCUUUGGGCUAGU [theeternabot_sameState_MS2_Trp_A_37]", "apparent KD of MS2 coat protein": 0.0239}
{"sequence": "ACGCACAUGAGGAUCACCCAUGUGAACCUACGAGGACCGGUACGGCCGCCACUCGCUGUUCCUACCGGCUUAAUUGUCACUGGGU [theeternabot_sameState_MS2_Trp_A_19]", "apparent KD of MS2 coat protein": 0.0544}
{"sequence": "CAAGAACAGCCGAAUCUCGGCAGCUGAGAAGGAGCGCGAGAAGUCGCAGGUAGGUCGCUCAGGAAUACAUGAGGAUCACCCAUGU [Usaronen]", "apparent KD of MS2 coat protein": 0.0459}
{"sequence": "UAAUAAAUAAAUCCAAGGUGAAGGUCAGAUACCAGCCAGAUAACUGGCCCUUGGCAGCUGAAUAAUCAUGAGGAUCACCCAUGAA [TheoAS 25 #OpenEnded #MS2Late #AlternativeMS2]", "apparent KD of MS2 coat protein": 0.0247}
{"sequence": "CCUGGAUCAGAUCUUAAAGGCGGUUCUGAUACCAGUCUUUUCCGAGACCCUUGGCAGCAGAACACAUGAGGAUCACCCAUGUAAA [theeternabot_exclusion_MS2_Theo_A_11]", "apparent KD of MS2 coat protein": 0.059}
{"sequence": "UACCGAGAGGGAAGGAGCGCGAUAACAUAACAUGAGGAUCACCCAUGUAAGAAAUUAAUCAUGCAGGUAGGUCGCCCAAGCGGAU [Same State Arginine B GF 2]", "apparent KD of MS2 coat protein": 0.0215}
